Experiments:
Wistar rats = experiment: Acute effects on blood pressure in anesthetized Wistar rats; type: in vivo, rat; conditions: single dose 0.5 mg/kg IV
Method: Male Wistar rats (Charles River Laboratories, Boston, Mass.) were 7.0 to 7.6 weeks old, weighed an average of 245 grams, and were maintained on Purina 5001 rat chow ad libitum. Following one week of laboratory acclimatization, treatments femoral catheter surgery and drug administration were conducted within a one-day period with measurements commencing the same day and continued during an ongoing three-week follow-up period. Treatment groups were (1) 3H3H3 (anti-BKB2R) antibody (n=8), (2) 3H3H9 (anti-BKB2R) antibody (n=8), (3) 1F2G7 (anti-BKB2R) antibody, (n=3), (4) 5F12G1 (anti-BKB2R) antibody (n=8).
Rats were anesthetized with ketamine (30 mg/kg, IM) and Inactin (50 mg/kg, IP). Cannulae were implanted in the femoral artery for blood pressure measurements and in the femoral vein for drug administration. Arterial line was filled with saline with 10 UI/ml of heparin to keep the line patent over the experiment and avoid frequent flushing of the arterial line. After 15-20 minutes of equilibration period, and once the blood pressure was stable, a baseline blood pressure was recorded for 15 minutes; then, drugs were administered and its effects on blood pressure assessed. For the antibodies a single dose (0.5 mg/kg) was administered and blood pressure recorded for three hours. All drugs were diluted in saline or PBS to achieve a total volume of 1 ml/kg. Drugs were slowly administered, on a 40-sec period on average. Animals were kept at 37° C. during the experiment. At the end of the experiments, animals were euthanized and no blood or tissues were collected.
Baseline blood pressure, length of blood pressure response to drug, maximum blood pressure change and Area Under the Curve (AUC) for the blood pressure response. Blood pressure at 1, 2 and 3 h after infusion for the antibodies.

ZDF fa/fa rats [1] = experiment: 21-day ZDF fa/fa study: hyperinsulinemic-euglycemic clamp in sub-groups; type: in vivo, rat; conditions: after 21 days
Method: (§1) Animals. Male ZDF fa/fa rats were obtained from CRL (Kingston, N.Y.). Upon arrival, rats were seven weeks of age. The rats were housed individually per cage in a room with a photo cycle of 12 hours of light and 12 hours of dark and an ambient temperature of 70-72° F. and fed on regular rodent diet and water ad libitum. At the age of eleven weeks, rats were divided into six groups (Table 5) of eight rats per group based on fasting blood glucose levels. A sub-group of four rats per group was maintained in parallel to the main groups and was dosed similarly for twenty-one days for a hyperinsulinemic-euglycemic clamp study.
The test compounds 5F12G1 and MG2b-57 were administered subcutaneously once every three days.

ZDF fa/fa rats [2] = experiment: 21-day ZDF fa/fa study: urinary glucose (glycosuria); type: in vivo, rat; conditions: day 14
ZDF fa/fa rats [3] = experiment: 21-day ZDF fa/fa study: tolerability; type: in vivo, rat; conditions: different doses (0.2, 0.04, 0.008 mg/kg s.c. every 3 days), 21 days
Method: as §1
The test compounds 5F12G1 and MG2b-57 were administered subcutaneously once every three days. Exenatide was administrated intraperitoneally twice every day and sitagliptin was administrated orally once every day for a period of twenty-one days.

BKB2 receptor = target: T1, BKB2 receptor (Homo sapiens, UniProt P30411); experiment: Intracellular calcium release in CHO-K1/B2/Gα15 cells (FLIPR Calcium 4); type: cell-based; parameters: expressed in transfected cells; conditions: 0.5 mg/ml; normalized to the positive control; mean+/−SD, n=2
T1 sequence (P30411 1-391): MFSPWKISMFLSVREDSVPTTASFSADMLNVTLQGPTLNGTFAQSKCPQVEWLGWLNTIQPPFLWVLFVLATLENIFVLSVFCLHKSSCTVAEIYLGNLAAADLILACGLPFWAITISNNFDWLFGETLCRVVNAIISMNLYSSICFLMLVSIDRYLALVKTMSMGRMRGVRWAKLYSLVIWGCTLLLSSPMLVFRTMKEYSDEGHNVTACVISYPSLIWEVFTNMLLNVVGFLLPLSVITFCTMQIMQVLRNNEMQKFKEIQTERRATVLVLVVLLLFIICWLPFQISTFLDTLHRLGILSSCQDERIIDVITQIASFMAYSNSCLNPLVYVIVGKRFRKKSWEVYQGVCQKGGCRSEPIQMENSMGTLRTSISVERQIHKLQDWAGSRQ
Method: A stable CHO cell line expressing the human BKB2 receptor (CHO-K1/B2/Gα15) was used for the screening. The antibody was diluted to five different concentrations, from 0.5 mg/ml, via three-fold dilution increments, and screened on duplicate cell samples.
Expression and functional activity of the human BKB2 receptor in the CHO-K1/B2/Gα15 cell line were validated by exposure to the positive control, bradykinin.
To perform the assay, CHO-K1/B2/Gα15 cells were seeded in wells of a 384-well black-wall, clear-bottom plate at a density of 20,000 cells per well in 20 μL of growth medium 20 hours prior to the day of experiment, and maintained at 37° C./5% CO2. 20 μL of dye-loading solution (FLIPR™ Calcium 4 assay kit, Molecular Devices, Sunnyvale, Calif.) was added into each well and the plate was placed into a 37° C. incubator for 60 minutes, followed by 15 minutes at room temperature. The total reading time was 120 sec. After a 20-second reading to establish the baseline, the antibody or agonist were added to selected wells and the fluorescence signal was captured for another 100 seconds (21 s to 120 s). Readings from wells containing cells stimulated with assay buffer (0.03% Na3N PBS) containing 1% DMSO were chosen as the background values for screening; readings from wells containing cells stimulated with the agonist bradykinin (at 10 uM) were chosen as the positive control.

B1: 5F12G1: murine monoclonal anti-BKB2R antibody (IgG2b,κ), VH comprising SEQ ID NO:1, VL comprising SEQ ID NO:2 (antibody, listed as Mus musculus, V domains shown)
VH: EVKLEESGGGLVQPGGSMKLSCVVSGFTFSDYWMSWVRHSPEMGLEWVAEIRLKSDNYATHYAESVKGRFTISRDDSKSRLYLQINSLRGEDTGIYYCTRDYYAMEYWGQGTSVTVSS
VL: DVVMTQTPLSLPVSLGDQASISCRSSQTIVHSNGKTYLEWYLQKPGQSPKLLIYKVSNRFSGVPDRFSGSGSGTEFTLKISRVETEDLGVYYCFQASHVPYTFGGGTKLEIK
Wistar rats
  Peak Blood Pressure Response (mm HG): 57 +/− 4 mm HG
Wistar rats; until blood pressure returned to baseline
  Length (sec) of Blood Pressure Response: 168 ± 29 s
Wistar rats; baseline 109±3 mm Hg
  blood pressure at one hour after administration: 95±3 mm Hg
  blood pressure at three hours after administration: 95±3 mm Hg
  blood pressure at two hours after administration: 94±3 mm Hg
ZDF fa/fa rats [1]; 0.04 mg/kg s.c. every 3 days
  AUC-GIR (glucose infusion rate) in the clamp: significantly higher AUC-GIR
ZDF fa/fa rats [1]; 0.2 mg/kg s.c. every 3 days
  AUC-GIR (glucose infusion rate) in the clamp: significantly higher AUC-GIR
ZDF fa/fa rats [2]; 0.008 mg/kg s.c. every 3 days
  urine glucose level: 54 ± 11 mg/dL
ZDF fa/fa rats [2]; 0.04 mg/kg s.c. every 3 days
  urine glucose level: 49 ± 6 mg/dL
ZDF fa/fa rats [2]; 0.2 mg/kg s.c. every 3 days
  urine glucose level: 31 ± 2 mg/dL
ZDF fa/fa rats [3]
  tolerability / toxic effects: well tolerated and no toxic effects were noted
BKB2 receptor
  percentage of activation: 72.7+/−3.5%

Source: US20140017242A1, “ANTI-BRADYKININ B2 RECEPTOR (BKB2R) MONOCLONAL ANTIBODY” (Diamedica, Inc., priority 2010, published 2014)
